The record followed here is patent publication US20260014232A1, “Pharmaceutical Composition of GLP-1 and GIP Receptor Dual Agonist and Use Thereof” (Jiangsu Hengrui Pharmaceuticals Co., Ltd., priority 2021, published 2026).

Starred links: 1 amine or outer side, 2 acyl side, 3 side chain; linkers in the order of their positions; H or OH if unused. Non-standard residues stand in square brackets, D forms with d. Groups on a side chain read outwards from the residue. No end group written: not given here. *: point of attachment. Arachidoyl = CCCCCCCCCCCCCCCCCCCC(=O)*; γGlu = O=C(O)[C@H](CCC(=O)[*:2])N[*:1]; AEEA = NCCOCCOCC(=O)O; Aib = CC(C)(N)C(=O)O

Test [1] deals with human glucagon-like peptide-1 receptor (GLP-1R) (human, UniProt P43220 24-463). Kind of test: cell-based or functional assay.
The target in test [2] is T1, human glucose-dependent insulinotropic polypeptide receptor (GIPR) (human, UniProt P48546 22-466).
T1 sequence (looked up): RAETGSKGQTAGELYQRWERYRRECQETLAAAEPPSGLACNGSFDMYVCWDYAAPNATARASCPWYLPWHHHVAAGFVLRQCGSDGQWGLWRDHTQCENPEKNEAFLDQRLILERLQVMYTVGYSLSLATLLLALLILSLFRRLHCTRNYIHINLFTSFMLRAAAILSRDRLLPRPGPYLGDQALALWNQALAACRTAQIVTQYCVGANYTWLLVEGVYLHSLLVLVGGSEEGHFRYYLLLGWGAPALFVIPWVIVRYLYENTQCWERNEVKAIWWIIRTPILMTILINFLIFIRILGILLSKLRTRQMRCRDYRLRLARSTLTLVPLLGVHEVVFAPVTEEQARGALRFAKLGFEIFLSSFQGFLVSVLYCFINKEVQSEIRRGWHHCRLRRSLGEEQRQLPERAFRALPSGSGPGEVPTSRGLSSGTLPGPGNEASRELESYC
Kind of test: cell-based or functional assay.

B1: compound 12# (peptide)
peptide: Y[Aib]EGTFTSDYSIYK([AEEA-AEEA-γGlu-Arachidoyl])EKIAAQEFVNWLIAGGPSSGAPPPS-NH2
modifications: N-terminus assumed
SMILES: CCCCCCCCCCCCCCCCCCCC(=O)N[C@@H](CCC(=O)NCCOCCOCC(=O)NCCOCCOCC(=O)NCCCC[C@H](NC(=O)[C@H](Cc1ccc(O)cc1)NC(=O)[C@@H](NC(=O)[C@H](CO)NC(=O)[C@H](Cc1ccc(O)cc1)NC(=O)[C@H](CC(=O)O)NC(=O)[C@H](CO)NC(=O)[C@@H](NC(=O)[C@H](Cc1ccccc1)NC(=O)[C@@H](NC(=O)CNC(=O)[C@H](CCC(=O)O)NC(=O)C(C)(C)NC(=O)[C@@H](N)Cc1ccc(O)cc1)[C@@H](C)O)[C@@H](C)O)[C@@H](C)CC)C(=O)N[C@@H](CCC(=O)O)C(=O)N[C@@H](CCCCN)C(=O)N[C@H](C(=O)N[C@@H](C)C(=O)N[C@@H](C)C(=O)N[C@@H](CCC(N)=O)C(=O)N[C@@H](CCC(=O)O)C(=O)N[C@@H](Cc1ccccc1)C(=O)N[C@H](C(=O)N[C@@H](CC(N)=O)C(=O)N[C@@H](Cc1c[nH]c2ccccc12)C(=O)N[C@@H](CC(C)C)C(=O)N[C@H](C(=O)N[C@@H](C)C(=O)NCC(=O)NCC(=O)N1CCC[C@H]1C(=O)N[C@@H](CO)C(=O)N[C@@H](CO)C(=O)NCC(=O)N[C@@H](C)C(=O)N1CCC[C@H]1C(=O)N1CCC[C@H]1C(=O)N1CCC[C@H]1C(=O)N[C@@H](CO)C(N)=O)[C@@H](C)CC)C(C)C)[C@@H](C)CC)C(=O)O
B1: the “Activity against human GLP-1R (EC50 nM); cAMP HTRF, CHO-K1/GLP-1R/CRE-luc cells” value (“Activity against human GLP-1R (EC50 nM)” below) in test [1] was determined as 0.03 nM. For the same molecule, the “Activity against human GIPR (EC50 nM); cAMP HTRF, CHO-K1 cells overexpressing hGIP receptor” value (“Activity against human GIPR (EC50 nM)” below) in test [2] was determined as 0.17 nM.

B2: compound 14# (peptide)
peptide: Y[Aib]EGTFTSDYSIYK([AEEA-AEEA-γGlu-Arachidoyl])EKIAAQEFINWLIAGGPSSGAPPPS-NH2
modifications: N-terminus assumed
SMILES: CCCCCCCCCCCCCCCCCCCC(=O)N[C@@H](CCC(=O)NCCOCCOCC(=O)NCCOCCOCC(=O)NCCCC[C@H](NC(=O)[C@H](Cc1ccc(O)cc1)NC(=O)[C@@H](NC(=O)[C@H](CO)NC(=O)[C@H](Cc1ccc(O)cc1)NC(=O)[C@H](CC(=O)O)NC(=O)[C@H](CO)NC(=O)[C@@H](NC(=O)[C@H](Cc1ccccc1)NC(=O)[C@@H](NC(=O)CNC(=O)[C@H](CCC(=O)O)NC(=O)C(C)(C)NC(=O)[C@@H](N)Cc1ccc(O)cc1)[C@@H](C)O)[C@@H](C)O)[C@@H](C)CC)C(=O)N[C@@H](CCC(=O)O)C(=O)N[C@@H](CCCCN)C(=O)N[C@H](C(=O)N[C@@H](C)C(=O)N[C@@H](C)C(=O)N[C@@H](CCC(N)=O)C(=O)N[C@@H](CCC(=O)O)C(=O)N[C@@H](Cc1ccccc1)C(=O)N[C@H](C(=O)N[C@@H](CC(N)=O)C(=O)N[C@@H](Cc1c[nH]c2ccccc12)C(=O)N[C@@H](CC(C)C)C(=O)N[C@H](C(=O)N[C@@H](C)C(=O)NCC(=O)NCC(=O)N1CCC[C@H]1C(=O)N[C@@H](CO)C(=O)N[C@@H](CO)C(=O)NCC(=O)N[C@@H](C)C(=O)N1CCC[C@H]1C(=O)N1CCC[C@H]1C(=O)N1CCC[C@H]1C(=O)N[C@@H](CO)C(N)=O)[C@@H](C)CC)[C@@H](C)CC)[C@@H](C)CC)C(=O)O
Turning to B2, the “Activity against human GLP-1R (EC50 nM)” value in test [1] was determined as 0.013 nM. The “Activity against human GIPR (EC50 nM)” value in test [2] worked out at 0.13 nM.

B3: compound 13# (peptide)
peptide: Y[Aib]EGTFTSDYSIYK([AEEA-AEEA-γGlu-Arachidoyl])ERIAAQEFVNWLIAGGPSSGAPPPS-NH2
modifications: N-terminus assumed
SMILES: CCCCCCCCCCCCCCCCCCCC(=O)N[C@@H](CCC(=O)NCCOCCOCC(=O)NCCOCCOCC(=O)NCCCC[C@H](NC(=O)[C@H](Cc1ccc(O)cc1)NC(=O)[C@@H](NC(=O)[C@H](CO)NC(=O)[C@H](Cc1ccc(O)cc1)NC(=O)[C@H](CC(=O)O)NC(=O)[C@H](CO)NC(=O)[C@@H](NC(=O)[C@H](Cc1ccccc1)NC(=O)[C@@H](NC(=O)CNC(=O)[C@H](CCC(=O)O)NC(=O)C(C)(C)NC(=O)[C@@H](N)Cc1ccc(O)cc1)[C@@H](C)O)[C@@H](C)O)[C@@H](C)CC)C(=O)N[C@@H](CCC(=O)O)C(=O)N[C@@H](CCCNC(=N)N)C(=O)N[C@H](C(=O)N[C@@H](C)C(=O)N[C@@H](C)C(=O)N[C@@H](CCC(N)=O)C(=O)N[C@@H](CCC(=O)O)C(=O)N[C@@H](Cc1ccccc1)C(=O)N[C@H](C(=O)N[C@@H](CC(N)=O)C(=O)N[C@@H](Cc1c[nH]c2ccccc12)C(=O)N[C@@H](CC(C)C)C(=O)N[C@H](C(=O)N[C@@H](C)C(=O)NCC(=O)NCC(=O)N1CCC[C@H]1C(=O)N[C@@H](CO)C(=O)N[C@@H](CO)C(=O)NCC(=O)N[C@@H](C)C(=O)N1CCC[C@H]1C(=O)N1CCC[C@H]1C(=O)N1CCC[C@H]1C(=O)N[C@@H](CO)C(N)=O)[C@@H](C)CC)C(C)C)[C@@H](C)CC)C(=O)O
As to B3, the “Activity against human GLP-1R (EC50 nM)” value in test [1] came to 0.017 nM. Further, the “Activity against human GIPR (EC50 nM)” value in test [2] was 0.13 nM.

Consider Y[Aib]EGTFTSDYSIYLEK([AEEA-AEEA-γGlu-Arachidoyl])IAAQEFVNWLIAGGPSSGAPPPS-NH2 [compound 9#], for which the “Activity against human GLP-1R (EC50 nM)” value in test [1] was 0.049 nM. Also, the “Activity against human GIPR (EC50 nM)” value in test [2] was found to be 0.04 nM.

B4: compound 10# (peptide)
peptide: Y[Aib]EGTFTSDYSIYLEK([AEEA-AEEA-γGlu-Arachidoyl])IAAQEFINWLIAGGPSSGAPPPS-NH2
modifications: N-terminus assumed
SMILES: CCCCCCCCCCCCCCCCCCCC(=O)N[C@@H](CCC(=O)NCCOCCOCC(=O)NCCOCCOCC(=O)NCCCC[C@H](NC(=O)[C@H](CCC(=O)O)NC(=O)[C@H](CC(C)C)NC(=O)[C@H](Cc1ccc(O)cc1)NC(=O)[C@@H](NC(=O)[C@H](CO)NC(=O)[C@H](Cc1ccc(O)cc1)NC(=O)[C@H](CC(=O)O)NC(=O)[C@H](CO)NC(=O)[C@@H](NC(=O)[C@H](Cc1ccccc1)NC(=O)[C@@H](NC(=O)CNC(=O)[C@H](CCC(=O)O)NC(=O)C(C)(C)NC(=O)[C@@H](N)Cc1ccc(O)cc1)[C@@H](C)O)[C@@H](C)O)[C@@H](C)CC)C(=O)N[C@H](C(=O)N[C@@H](C)C(=O)N[C@@H](C)C(=O)N[C@@H](CCC(N)=O)C(=O)N[C@@H](CCC(=O)O)C(=O)N[C@@H](Cc1ccccc1)C(=O)N[C@H](C(=O)N[C@@H](CC(N)=O)C(=O)N[C@@H](Cc1c[nH]c2ccccc12)C(=O)N[C@@H](CC(C)C)C(=O)N[C@H](C(=O)N[C@@H](C)C(=O)NCC(=O)NCC(=O)N1CCC[C@H]1C(=O)N[C@@H](CO)C(=O)N[C@@H](CO)C(=O)NCC(=O)N[C@@H](C)C(=O)N1CCC[C@H]1C(=O)N1CCC[C@H]1C(=O)N1CCC[C@H]1C(=O)N[C@@H](CO)C(N)=O)[C@@H](C)CC)[C@@H](C)CC)[C@@H](C)CC)C(=O)O
In the case of B4, the “Activity against human GLP-1R (EC50 nM)” value in test [1] is 0.065 nM. Moreover, the “Activity against human GIPR (EC50 nM)” value in test [2] was found to be 0.056 nM.

B5: compound 15# (peptide)
peptide: Y[Aib]EGTFTSDYSIYK([AEEA-AEEA-γGlu-Arachidoyl])ERIAAQEFINWLIAGGPSSGAPPPS-NH2
modifications: N-terminus assumed
SMILES: CCCCCCCCCCCCCCCCCCCC(=O)N[C@@H](CCC(=O)NCCOCCOCC(=O)NCCOCCOCC(=O)NCCCC[C@H](NC(=O)[C@H](Cc1ccc(O)cc1)NC(=O)[C@@H](NC(=O)[C@H](CO)NC(=O)[C@H](Cc1ccc(O)cc1)NC(=O)[C@H](CC(=O)O)NC(=O)[C@H](CO)NC(=O)[C@@H](NC(=O)[C@H](Cc1ccccc1)NC(=O)[C@@H](NC(=O)CNC(=O)[C@H](CCC(=O)O)NC(=O)C(C)(C)NC(=O)[C@@H](N)Cc1ccc(O)cc1)[C@@H](C)O)[C@@H](C)O)[C@@H](C)CC)C(=O)N[C@@H](CCC(=O)O)C(=O)N[C@@H](CCCNC(=N)N)C(=O)N[C@H](C(=O)N[C@@H](C)C(=O)N[C@@H](C)C(=O)N[C@@H](CCC(N)=O)C(=O)N[C@@H](CCC(=O)O)C(=O)N[C@@H](Cc1ccccc1)C(=O)N[C@H](C(=O)N[C@@H](CC(N)=O)C(=O)N[C@@H](Cc1c[nH]c2ccccc12)C(=O)N[C@@H](CC(C)C)C(=O)N[C@H](C(=O)N[C@@H](C)C(=O)NCC(=O)NCC(=O)N1CCC[C@H]1C(=O)N[C@@H](CO)C(=O)N[C@@H](CO)C(=O)NCC(=O)N[C@@H](C)C(=O)N1CCC[C@H]1C(=O)N1CCC[C@H]1C(=O)N1CCC[C@H]1C(=O)N[C@@H](CO)C(N)=O)[C@@H](C)CC)[C@@H](C)CC)[C@@H](C)CC)C(=O)O
With B5, in test [1], the “Activity against human GLP-1R (EC50 nM)” value is 0.015 nM. Also, the “Activity against human GIPR (EC50 nM)” value in test [2] worked out at 0.23 nM.
